Where a chain is given by its changes, count along the chain named.
Tests used:
[1] = test system: T1, CGGSGGRRAPGKLQCLASYCWLFWTGIAGGSGGC
T1 sequence: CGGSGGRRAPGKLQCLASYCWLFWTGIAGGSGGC

HMQWGKLPCLASYCWLFWYGIG = test system: T2, HMQWGKLPCLASYCWLFWYGIG
T2 sequence: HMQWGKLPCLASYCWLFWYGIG

KLT-Glu-LASY-Orn-WLF = test system: T3, KLT-Glu-LASY-Orn-WLF
T3 sequence: KLTELASYXWLF

[2] = test system: T4, KLT-Orn-LASY-Glu-WLF-CONH2
T4 sequence: KLTXLASYEWLF

KLTCLASYCwLF = test system: T5, KLTCLASYCwLF
T5 sequence: KLTCLASYCWLF

[3] = test system: T6, LYPRLYTPGS RRAYG KLTCLASYCWLFWTGIA
T6 sequence: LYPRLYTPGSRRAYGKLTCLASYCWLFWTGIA

[4] = test system: T7, PRIRTVGPGSRSASGKLTCLASYCWLFWTFIA
T7 sequence: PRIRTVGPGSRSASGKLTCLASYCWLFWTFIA

[5] = test system: T8, PRTTANRRSS RRAPA KLTCLASYCWLFWTGIA
T8 sequence: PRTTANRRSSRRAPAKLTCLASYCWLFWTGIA

[6] = test system: T9, RRAPGKLCALASYCWLFWTGIA-COOH
T9 sequence: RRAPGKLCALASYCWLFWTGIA

[7] = test system: T10, RRAPGKLT-Asp-LASY-Dab-WLFWTGIA-CONH2
T10 sequence: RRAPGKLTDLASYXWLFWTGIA

[8] = test system: T11, RRAPGKLTCLASYCWLF STPVA RKSLRRHQPT
T11 sequence: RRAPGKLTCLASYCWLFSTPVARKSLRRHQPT

[9] = test system: T12, RRAPGKLTCLASYCWLF WTGFA FRVGLASSLY
T12 sequence: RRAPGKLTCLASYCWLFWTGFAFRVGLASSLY

[10] = test system: T13, RRAPGKLTCLASYCWLF WTGWS RDTASHASDS
T13 sequence: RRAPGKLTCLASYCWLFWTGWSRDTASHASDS

[11] = test system: T14, SKQGRPASPDrRAAGKLTCLASYCWLFWTGIA
T14 sequence: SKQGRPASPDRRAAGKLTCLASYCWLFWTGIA

[12] = test system: T15, SKQGRPISPDRRAAGKLT-Asp-LASY-Orn-WLFWTGIA
T15 sequence: T14 sequence with A7I, C19D, C24X

[13] = test system: T16, k-MeLeu-TCLAS-(Y-OMe)-CWLF
T16 sequence: KLTCLASYCWLF

human Factor IXa
Vmax, FXa generation assay; (++) means 1-2 [1]: (++) | Vmax, FXa generation assay (HMQWGKLPCLASYCWLFWYGIG): > 2 | Vmax, FXa generation assay; (++) means 1-2 (KLT-Glu-LASY-Orn-WLF): (++) | Vmax, FXa generation assay; (++) means 1-2 [2]: (++) | Vmax, FXa generation assay (KLTCLASYCwLF): > 3 | Vmax, FXa generation assay [3]: > 2 | Vmax, FXa generation assay [4]: > 2 | Vmax, FXa generation assay [5]: > 3 | Vmax, FXa generation assay [6]: > 2 | Vmax, FXa generation assay; (++) means 1-2 [7]: (++) | Vmax, FXa generation assay [8]: > 3 | Vmax, FXa generation assay [9]: > 3 | Vmax, FXa generation assay [10]: > 2 | Vmax, FXa generation assay [11]: > 2 | Vmax, FXa generation assay [12]: > 3 | Vmax, FXa generation assay [13]: > 3
